Data published in patent publication US9155795B2, “CXCR4 receptor compounds” (Anchor Therapeutics, Inc., priority 2010, dated 2015).
Where a SMILES comes first, the peptide text is derived from it. Where no end group is shown, it is not given here. [ ]: non-standard residue; d: D form. The star is where a group is joined. Hexadecanesulfonyl = CCCCCCCCCCCCCCCCS(=O)(=O)*

Columns and labels:
[1] = target: T1, CXCR4 (Homo sapiens, UniProt P61073); experiment: CXCR4 chemotaxis assay (Transwell, CCRF-CEM cells); format: cell-based; details: DMSO vehicle
T1 construct: CCRF-CEM cells, a human T-cell ALL line that endogenously expresses CXCR4; endogenous in cells; host or cells: CCRF-CEM (human T-cell acute lymphoblastic leukemia line)
Source text: Chemotaxis assays are utilized to determine the effect of compound on the directed migration of cells in response to chemokine. In general, cells that express a receptor of interest are placed in the upper chamber of a Transwell chemotaxis plate (Corning) and allowed to migrate through a polycarbonate membrane to a lower chamber containing the appropriate receptor-specific ligand. To test for antagonist or potentiating activity, cells are mixed with the desired concentration of compound prior to addition to the upper chamber. Conversely, agonist activity is determined by adding compound in the bottom chamber only without endogenous chemokine. The effect of compound is quantified by several parameters, including the extent of maximum response, the shift of agonist dose-response curves, and the area under the curve.
To measure the CXCR4 test compound elicited CXCR4-dependent migration of cells, the appropriate concentration of control agonist CXCL12 or test compound is diluted in phenol red-free RMPI-1640/20 mM HEPES/0.5% BSA buffer and placed in the bottom chamber of a transwell apparatus. CCRF-CEM cells, a human T-cell ALL line that endogenously expresses CXCR4, are washed twice in buffer and resuspended at 133,000 cells/ml. A 75 μl sample of the cell suspension is mixed with the test compound of interest and placed in the upper chamber of a 5-micron transwell apparatus.
To measure the effect of test compound on CXCL12 elicited CXCR4-dependent migration of cells, the appropriate concentration of CXCL12 is diluted in phenol red-free RMPI-1640/20 mM HEPES/0.5% BSA buffer and placed in the bottom chamber of a transwell apparatus. CCRF-CEM cells, a human T-cell ALL line that endogenously expresses CXCR4, are washed twice in buffer and resuspended at 133,000 cells/ml. A 75 μl sample of this suspension is mixed with the test compound of interest and placed in the upper chamber of a 5-micron transwell apparatus.
To initiate cell migration, the assembled transwell plate is placed in a 37° C., […] incubator for a specified time interval, typically between 30 and 120 minutes. After incubation, the unit is disassembled and the lower chamber placed at −80° C. overnight to facilitate lysis of cells. To quantify migrated cells, plates are thawed at 37° C. in a humidified chamber, and then a sample volume is removed from each well and mixed with an equal volume of CyQuant (Invitrogen) working solution in opaque plates. The fluorescence intensity of each well represents the DNA content and is directly proportional to cell number. Each sample is typically run in duplicate or triplicate and each plate include two separate negative controls. The plate background control, which includes no cells in the upper chamber, is subtracted from all values. […]

[2] = target: T1, CXCR4; experiment: Calcium flux assay, agonist mode, FLIPR (CCRF-CEM cells); format: cell-based; details: percent of maximum response compared with SDF-1α, read-out: % Intrinsic Activity
Method: The calcium flux assay was used to assess the test compounds' ability to activate the CXCR4 receptor in CCRF-CEM cells (human T lymphoblasts from acute lymphoblastic leukemia). […] After dye loading by incubating with Calcium-4 dye at 37° C. for 1 hour, cell plates were read at 37° C. using the Fluorescent Imaging Plate Reader (FLIPR). Receptor activation was assessed by measuring changes in fluorescent intensity after the addition of the test compounds or the reference agonist SDF-1α on the FLIPR.

T1 sequence (P61073 whole entry): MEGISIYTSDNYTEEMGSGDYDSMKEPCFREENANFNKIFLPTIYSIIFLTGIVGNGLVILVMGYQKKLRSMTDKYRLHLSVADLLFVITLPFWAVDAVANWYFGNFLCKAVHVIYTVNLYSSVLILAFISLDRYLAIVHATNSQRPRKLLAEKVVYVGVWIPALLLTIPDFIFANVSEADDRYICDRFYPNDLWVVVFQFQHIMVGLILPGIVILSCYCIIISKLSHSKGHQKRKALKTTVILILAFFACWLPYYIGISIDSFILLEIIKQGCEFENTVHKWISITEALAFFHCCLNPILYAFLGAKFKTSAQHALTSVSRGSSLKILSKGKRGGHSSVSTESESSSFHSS

Compound | AUC (% of Vehicle) [1] | Max (% of Vehicle) [1] | Emax [2]
43: i3 loop peptide SKLSHSKGHQKRKALKTTVIL (SEQ ID NO: 39), lipid Pal (also: lipid Pal attached, position not given here) [Compound 43] | 226.59 % of Vehicle | 202.16 % of Vehicle | 
CCCCCCCCCCCCCCCCS(=O)(=O)NCC(=O)NCC(=O)N[C@@H](Cc1ccc(O)cc1)C(=O)N[C@@H](CCC(N)=O)C(=O)N[C@@H](CCCCN)C(=O)N[C@@H](CCCCN)C(=O)N[C@@H](CC(C)C)C(=O)N[C@@H](CCCNC(=N)N)C(=O)N1CCC[C@@H]1C(=O)N[C@@H](Cc1c[nH]cn1)C(=O)N[C@H](C(=O)N[C@@H](CC(=O)O)C(=O)N[C@@H](CCCCN)C(=O)N[C@@H](Cc1ccc(O)cc1)C(=O)N[C@@H](CCCNC(=N)N)C(=O)N[C@@H](CC(C)C)C(N)=O)[C@@H](C)O [Compound 46, CH3(CH2)15SO2— GGYQKKLRpHTDKYRL-amide] (Hexadecanesulfonyl-GGYQKKLR[dP]HTDKYRL-NH2) |  |  | 107%
44: i4 loop peptide GAKFKTSAQHALTSVR (SEQ ID NO: 40), lipid Pal (also: lipid Pal attached, position not given here) [Compound 44] | 56.75 % of Vehicle | 56.7 % of Vehicle | 
